Assays:
[1] = target: T1, WRKY54 DBD (Arabidopsis thaliana, UniProt Q93WU8 133-224); test: QCM; QCM: 30 mM HEPES pH 7.5, 0.5 M NaCl, 2 mM TCEP, 25 °C, biotin-dsDNA on avidin; fEMSA: 30 min incubation in the dark, native PAGE 4 °C 120 V 90 min, buffer not stated; conditions: protein: recombinant; tags: N-term MBP + thrombin site; C-term 12xHis; label: 5' fluorescein (fEMSA); 5' biotin (QCM)
T1 sequence: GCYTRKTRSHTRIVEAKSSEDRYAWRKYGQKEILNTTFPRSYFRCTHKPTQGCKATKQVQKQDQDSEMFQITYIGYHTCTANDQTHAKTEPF

[2] = target: T1, WRKY54 DBD; test: EMSA; QCM: 30 mM HEPES pH 7.5, 0.5 M NaCl, 2 mM TCEP, 25 °C, biotin-dsDNA on avidin; fEMSA: 30 min incubation in the dark, native PAGE 4 °C 120 V 90 min, buffer not stated; conditions: protein: recombinant, tags: N-term MBP + thrombin site, C-term 12xHis
[3] = target: T1, WRKY54 DBD; test: QCM; text also gives 68 ± 11.73 pM for T13 (inconsistent); QCM: 30 mM HEPES pH 7.5, 0.5 M NaCl, 2 mM TCEP, 25 °C, biotin-dsDNA on avidin; fEMSA: 30 min incubation in the dark, native PAGE 4 °C 120 V 90 min, buffer not stated; conditions: protein: recombinant; tags: N-term MBP + thrombin site; C-term 12xHis; label: 5' fluorescein (fEMSA); 5' biotin (QCM)
[4] = label: 5' fluorescein (fEMSA), 5' biotin (QCM)

B1: T12a (dsDNA)
DNA 1: TTGTTGACTAGG
DNA 2: CCTAGTCAACAA
**Q.** For B1, which Kd [1] is on record?
**A.** Its Kd is 0.047 ± 0.0062 nM.

B2: T10 (dsDNA)
DNA 1: GTTGACTAGG
DNA 2: CCTAGTCAAC
**Q.** Does B2 bind [2, 4]?
**A.** Result: no binding

B3: T8 (dsDNA)
DNA 1: GTTGACTA
DNA 2: TAGTCAAC
**Q.** Does B3 bind [2, 4]?
**A.** Result: no binding

B4: T6 (dsDNA)
DNA 1: TTGACT
DNA 2: AGTCAA
**Q.** Does B4 bind [2, 4]?
**A.** Result: no binding

B5: W4 (dsDNA)
DNA 1: ATTTGTTGACTAGG
DNA 2: CCTAGTCAACAAAT
**Q.** B5 was tested. Which Kd [1] did it give?
**A.** Its Kd is 0.163 ± 0.0101 nM.

B6: T13 (dsDNA)
DNA 1: ATTTGTTGACTAG
DNA 2: CTAGTCAACAAAT
**Q.** B6 was tested. Which Kd [3] did it give?
**A.** Its Kd is 0.192 ± 0.0225 nM.

B7: W1 (dsDNA)
DNA 1: TGTCCTTGACTACA
DNA 2: TGTAGTCAAGGACA
**Q.** Does B7 bind ([2]; label: 5' fluorescein)?
**A.** Result: no binding

B8: W3 (dsDNA)
DNA 1: TTAACTTGACCCAA
DNA 2: TTGGGTCAAGTTAA
**Q.** Does B8 bind ([2]; label: 5' fluorescein)?
**A.** Result: no binding

B9: T12 (dsDNA)
DNA 1: ATTTGTTGACTA
DNA 2: TAGTCAACAAAT
**Q.** Which Kd [1] does the source give for B9 here?
**A.** The Kd was 2.19 ± 0.442 nM.

B10: W2 (dsDNA)
DNA 1: GTTATTTGACCACC
DNA 2: GGTGGTCAAATAAC
**Q.** Does B10 bind ([2]; label: 5' fluorescein)?
**A.** Result: no binding

— PMC8911475, “Insight into the Phylogeny and Binding Ability of WRKY Transcription Factors”
